Source: patent US20190112362A1 (published 2019)

Biological target: Human Tau monomer (recombinant 2N4R isoform, amino acids 2-441) (human, UniProt P10636 2-441)
Assay: SPR

Chain of Human Tau monomer (recombinant 2N4R isoform, amino acids 2-441) (P10636 other isoform, or with tags, fused parts or gaps): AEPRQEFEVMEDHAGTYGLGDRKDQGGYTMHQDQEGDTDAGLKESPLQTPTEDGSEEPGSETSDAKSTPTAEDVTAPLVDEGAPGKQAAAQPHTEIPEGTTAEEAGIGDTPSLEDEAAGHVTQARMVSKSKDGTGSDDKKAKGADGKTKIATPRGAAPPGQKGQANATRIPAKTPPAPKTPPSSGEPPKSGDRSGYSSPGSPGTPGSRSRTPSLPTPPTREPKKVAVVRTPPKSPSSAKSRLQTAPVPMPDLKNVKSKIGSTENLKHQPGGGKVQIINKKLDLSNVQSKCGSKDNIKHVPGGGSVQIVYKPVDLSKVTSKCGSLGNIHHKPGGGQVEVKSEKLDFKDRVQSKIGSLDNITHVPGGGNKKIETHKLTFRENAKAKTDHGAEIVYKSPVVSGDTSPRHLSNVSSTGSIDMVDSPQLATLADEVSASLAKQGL

B1: hu37D3.v29.8 (peptide)
chain: EDLHSNADTYFL
Kd: 40.9 nM
